The values that follow come from PMC3968163.

B1: unnamed (parent)
chain 1: SIDPADLDESWDYIFETTESPSSD
chain 2: MSHSGAAIFEKVSGIIAINEDVSPAELTWRSTDGDKVHTVVLSTIDKLQATPASSEKMMLRLIGKVDESKKRKDNEGNEVVPKPQRHMFSFNNRTVMDNIKMTLQQIISRYKDAD

In this test the parent is B1. The test is described as follows: ITC. To be noted: with partner chain of the complex shown; 25°C in a 20 mM Tris pH 7.4.
As a reminder, the Kd is the equilibrium constant for the complex coming apart. Turning to chain 1 SIDPADLDESWDYSFETTESPSSD, the Kd came out at 4.2 µM.
